From paper PMC7948726

Biological target: 14-3-3β (UniProt P31946)
Test: anti-FLAG co-IP, anti-HA blot
Conditions: reference: FLAG-DYRK1A wild type; sites S529

binding against the reference: weaker
Substance: DYRK1A (from UniProt Q63470) FLAG-DYRK1A-S529A
